Data on two molecules can be found in patent publication US20230250154A1 (CYTONICS, published 2023).

Common to all, as to experiment: cell-based or functional assay
Assay [1] deals with T1, Cathepsin G (UniProt P08311 21-244).
T1 sequence (looked up): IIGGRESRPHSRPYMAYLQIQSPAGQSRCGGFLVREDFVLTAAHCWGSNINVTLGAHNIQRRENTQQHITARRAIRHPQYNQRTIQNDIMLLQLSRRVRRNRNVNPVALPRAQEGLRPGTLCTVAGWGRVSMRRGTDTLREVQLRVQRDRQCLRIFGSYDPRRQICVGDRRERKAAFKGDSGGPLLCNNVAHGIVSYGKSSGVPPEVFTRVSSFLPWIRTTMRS

Assay [2] concerns the target T2, MMP2 (human, UniProt P08253 110-660, limits assumed).
T2 sequence (looked up): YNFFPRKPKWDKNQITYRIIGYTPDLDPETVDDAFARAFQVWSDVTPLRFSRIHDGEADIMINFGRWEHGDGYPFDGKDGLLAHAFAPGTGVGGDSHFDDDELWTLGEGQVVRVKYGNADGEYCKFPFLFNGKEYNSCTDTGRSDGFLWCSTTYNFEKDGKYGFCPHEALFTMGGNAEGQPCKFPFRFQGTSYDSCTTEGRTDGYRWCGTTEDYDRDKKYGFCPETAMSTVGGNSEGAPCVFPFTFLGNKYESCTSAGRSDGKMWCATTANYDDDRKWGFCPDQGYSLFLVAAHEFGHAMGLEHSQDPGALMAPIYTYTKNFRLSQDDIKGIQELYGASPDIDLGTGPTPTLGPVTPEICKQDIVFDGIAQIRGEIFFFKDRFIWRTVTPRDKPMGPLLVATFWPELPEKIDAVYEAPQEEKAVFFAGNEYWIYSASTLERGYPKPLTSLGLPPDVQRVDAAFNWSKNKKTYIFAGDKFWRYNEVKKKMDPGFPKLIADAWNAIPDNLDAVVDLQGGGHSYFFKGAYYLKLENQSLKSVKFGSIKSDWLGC

Assay [3] concerns the target MMP8 (human, UniProt P22894 101-467, limits assumed).
Assay [4] concerns the target MMP13 (human, UniProt P45452 104-471, limits assumed).
Assay [5] deals with T3, MMP1 (human, UniProt P03956 100-469, limits assumed).
T3 sequence (looked up): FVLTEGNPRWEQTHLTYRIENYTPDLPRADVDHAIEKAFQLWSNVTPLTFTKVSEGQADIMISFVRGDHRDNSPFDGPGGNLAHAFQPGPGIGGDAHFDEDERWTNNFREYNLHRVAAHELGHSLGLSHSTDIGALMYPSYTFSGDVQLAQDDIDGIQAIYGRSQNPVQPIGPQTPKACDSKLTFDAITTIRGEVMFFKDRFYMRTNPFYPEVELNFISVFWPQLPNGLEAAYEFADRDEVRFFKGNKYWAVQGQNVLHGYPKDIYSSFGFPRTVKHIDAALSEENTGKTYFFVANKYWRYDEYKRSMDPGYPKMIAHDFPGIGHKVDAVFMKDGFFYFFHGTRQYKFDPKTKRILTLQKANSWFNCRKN

For assay [6], the target named is T4, ADAMTS4 (human, UniProt O75173 213-685, limits assumed).
T4 sequence (looked up): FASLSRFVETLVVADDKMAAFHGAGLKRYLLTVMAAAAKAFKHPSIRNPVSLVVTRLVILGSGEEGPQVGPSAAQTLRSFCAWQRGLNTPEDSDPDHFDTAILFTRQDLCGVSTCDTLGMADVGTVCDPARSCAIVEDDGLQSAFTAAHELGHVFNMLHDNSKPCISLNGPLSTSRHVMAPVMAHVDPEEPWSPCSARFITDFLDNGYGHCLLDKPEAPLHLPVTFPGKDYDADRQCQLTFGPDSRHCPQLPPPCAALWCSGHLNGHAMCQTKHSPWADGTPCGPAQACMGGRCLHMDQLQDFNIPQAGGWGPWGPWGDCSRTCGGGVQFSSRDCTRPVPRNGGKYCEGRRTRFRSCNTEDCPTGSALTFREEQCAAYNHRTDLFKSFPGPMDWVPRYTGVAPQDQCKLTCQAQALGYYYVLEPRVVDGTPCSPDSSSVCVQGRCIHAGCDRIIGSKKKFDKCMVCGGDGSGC

Assay [7] deals with MMP3 (human, UniProt P08254 100-477, limits assumed).
Assay [8] concerns the target MMP9 (human, UniProt P14780 107-707, limits assumed).
Assay [9] concerns the target T5, ADAMTS5 (human, UniProt Q9UNA0 262-622, limits assumed).
T5 sequence (looked up): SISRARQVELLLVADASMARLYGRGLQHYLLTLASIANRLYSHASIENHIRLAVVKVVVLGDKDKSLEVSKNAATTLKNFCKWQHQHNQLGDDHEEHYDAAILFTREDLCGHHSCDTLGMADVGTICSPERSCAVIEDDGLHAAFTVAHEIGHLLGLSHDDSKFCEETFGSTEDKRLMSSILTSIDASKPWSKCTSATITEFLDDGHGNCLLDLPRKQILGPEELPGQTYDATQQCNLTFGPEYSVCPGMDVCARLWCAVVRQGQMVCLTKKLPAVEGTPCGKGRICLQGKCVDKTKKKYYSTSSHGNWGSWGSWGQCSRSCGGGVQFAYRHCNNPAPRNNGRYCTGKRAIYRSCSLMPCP

Assay [10] has as its target T6, MMP7 (UniProt P09237 95-267, limits assumed).
T6 sequence (looked up): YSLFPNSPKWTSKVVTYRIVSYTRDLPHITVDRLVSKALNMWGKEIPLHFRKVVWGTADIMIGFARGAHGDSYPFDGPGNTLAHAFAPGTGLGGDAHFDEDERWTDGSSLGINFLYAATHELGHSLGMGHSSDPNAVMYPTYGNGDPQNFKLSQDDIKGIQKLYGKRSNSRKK

The target in assay [11] is Elastase.

Chain of MMP3 (P08254 100-477 limits assumed): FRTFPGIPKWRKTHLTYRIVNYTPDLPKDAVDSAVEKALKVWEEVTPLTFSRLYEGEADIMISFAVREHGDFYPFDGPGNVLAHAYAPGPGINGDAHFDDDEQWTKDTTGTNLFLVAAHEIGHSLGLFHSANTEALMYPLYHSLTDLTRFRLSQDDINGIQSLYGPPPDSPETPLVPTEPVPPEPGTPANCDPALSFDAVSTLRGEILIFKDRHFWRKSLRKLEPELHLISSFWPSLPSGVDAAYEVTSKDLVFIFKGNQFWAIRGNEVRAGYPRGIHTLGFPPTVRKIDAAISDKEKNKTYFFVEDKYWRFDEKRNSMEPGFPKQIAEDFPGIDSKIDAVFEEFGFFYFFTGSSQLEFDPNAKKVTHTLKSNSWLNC
Chain of MMP9 (P14780 107-707 limits assumed): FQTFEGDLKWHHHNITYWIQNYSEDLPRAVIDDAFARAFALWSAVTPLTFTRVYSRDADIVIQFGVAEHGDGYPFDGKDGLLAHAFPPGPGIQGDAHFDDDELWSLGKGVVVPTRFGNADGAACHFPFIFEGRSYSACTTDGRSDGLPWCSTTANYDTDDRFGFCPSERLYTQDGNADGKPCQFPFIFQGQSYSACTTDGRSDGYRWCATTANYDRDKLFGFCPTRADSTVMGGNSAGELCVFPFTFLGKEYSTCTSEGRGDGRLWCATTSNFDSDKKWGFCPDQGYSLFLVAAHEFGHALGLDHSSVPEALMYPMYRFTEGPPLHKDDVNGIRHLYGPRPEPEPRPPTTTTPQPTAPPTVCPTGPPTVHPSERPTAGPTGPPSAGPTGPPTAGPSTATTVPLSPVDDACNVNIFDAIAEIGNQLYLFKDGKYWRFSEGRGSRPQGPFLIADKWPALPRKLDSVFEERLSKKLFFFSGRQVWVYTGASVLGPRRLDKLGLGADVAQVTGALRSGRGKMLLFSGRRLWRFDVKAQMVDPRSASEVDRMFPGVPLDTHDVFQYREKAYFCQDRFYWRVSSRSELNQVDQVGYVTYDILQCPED
Chain of MMP8 (P22894 101-467 limits assumed): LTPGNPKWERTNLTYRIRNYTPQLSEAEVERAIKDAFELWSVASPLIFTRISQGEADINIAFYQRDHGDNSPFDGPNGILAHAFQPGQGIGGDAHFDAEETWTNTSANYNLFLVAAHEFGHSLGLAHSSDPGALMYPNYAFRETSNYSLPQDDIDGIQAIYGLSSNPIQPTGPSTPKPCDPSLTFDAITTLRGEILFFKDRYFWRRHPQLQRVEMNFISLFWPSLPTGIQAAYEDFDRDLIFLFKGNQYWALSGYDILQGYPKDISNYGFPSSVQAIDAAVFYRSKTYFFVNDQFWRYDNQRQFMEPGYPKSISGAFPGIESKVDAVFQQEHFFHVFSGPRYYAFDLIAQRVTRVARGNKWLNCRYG

B1: Variant A2M, bait region SEQ ID NO 20 (other)
chain: SVSGKPQYMVLVPSLLHTETTEKGCVLLSYLNETVTVSASLESVRGNRSLFTDLEAENDVLHCVAFAVPKSSSNEEVMFLTVQVKGPTQEFKKRTTVMVKNEDSLVFVQTDKSIYKPGQTVKFRVVSMDENFHPLNELIPLVYIQDPKGNRIAQWQSFQLEGGLKQFSFPLSSEPFQGSYKVVVQKKSGGRTEHPFTVEEFVLPKFEVQVTVPKIITILEEEMNVSVCGLYTYGKPVPGHVTVSICRKYSDASDCHGEDSQAFCEKFSGQLNSHGCFYQQVKTKVFQLKRKEYEMKLHTEAQIQEEGTVVELTGRQSSEITRTITKLSFVKVDSHFRQGIPFFGQVRLVDGKGVPIPNKVIFIRGNEANYYSNATTDEHGLVQFSINTTNVMGTSLTVRVNYKDRSPCYGYQWVSEEHEEAHHTAYLVFSPSKSFVHLEPMSHELPCGHTQTVQAHYILNGGTLLGLKKLSFYYLIMAKGGIVRTGTHGLLVKQEDMKGHFSISIPVKSDIAPVARLLIYAVLPTGDVIGDSAKYDVENCLANKVDLSFSPSQSLPASHAHLRVTAAPQSVCALRAVDQSVLLMKPDAELSASSVYNLLPEKDLTGFPGPLNDQDDEDCINRHNVYINGITYTPVSSTNEKDMYSFLEDMGLKAFTNSKIRKPKMCPQLEHGPEFRGVTEGEGEGIPENFYGVSEDLVVQISELEGRGSVEEPHTKLRKYFPETWIWDLVVVNSAGVAEVGVTVPDTITEWKAGAFCLSEDAGLGISSTASLRAFQPFFVELTMPYSVIRGEAFTLKATVLNYLPKCIRVSVQLEASPAFLAVPVEKEQAPHCICANGRQTVSWAVTPKSLGNVNFTVSAEALESQELCGTEVPSVPEHGRKDTVIKPLLVEPEGLEKETTFNSLLCPSGGEVSEELSLKLPPNVVEESARASVSVLGDILGSAMQNTQNLLQMPYGCGEQNMVLFAPNIYVLDYLNETQQLTPEIKSKAIGYLNTGYQRQLNYKHYDGSYSTFGERYGRNQGNTWLTAFVLKTFAQARAYIFIDEAHITQALIWLSQRQKDNGCFRSSGSLLNNAIKGGVEDEVTLSAYITIALLEIPLTVTHPVVRNALFCLESAWKTAQEGDHGSHVYTKALLAYAFALAGNQDKRKEVLKSLNEEAVKKDNSVHWERPQKPKAPVGHFYEPQAPSAEVEMTSYVLLAYLTAQPAPTSEDLTSATNIVKWITKQQNAQGGFSSTQDTVVALHALSKYGAATFTRTGKAAQVTIQSSGTFSSKFQVDNNNRLLLQQVSLPELPGEYSMKVTGEGCVYLQTSLKYNILPEKEEFPFALGVQTLPQTCDEPKAHTSFQISLSVSYTGSRSASNMAIVDVKMVSGFIPLKPTVKMLERSNHVSRTEVSSNHVLIYLDKVSNQTLSLFFTVLQDVPVRDLKPAIVKVYDYYETDEFAIAEYNAPCSKDLGNADYKDDDDKGASHHHHHH
B1: the “Protease Inhibition (% of WT)” value in assay [1] was 117 % of WT; in [2] it was 37 % of WT; in assay [3] it was 64 % of WT; in assay [4], 100 % of WT; in assay [5], 119 % of WT; in assay [6] it was 201 % of WT. The “Protease Inhibition (% of WT)” value was 122 % of WT in assay [7]; 41 % of WT in assay [8]; 246 % of WT in [9]; 170 % of WT in assay [10]; 124 % of WT in assay [11].

B2: Variant A2M, bait region SEQ ID NO 21 (other)
chain: SVSGKPQYMVLVPSLLHTETTEKGCVLLSYLNETVTVSASLESVRGNRSLFTDLEAENDVLHCVAFAVPKSSSNEEVMFLTVQVKGPTQEFKKRTTVMVKNEDSLVFVQTDKSIYKPGQTVKFRVVSMDENFHPLNELIPLVYIQDPKGNRIAQWQSFQLEGGLKQFSFPLSSEPFQGSYKVVVQKKSGGRTEHPFTVEEFVLPKFEVQVTVPKIITILEEEMNVSVCGLYTYGKPVPGHVTVSICRKYSDASDCHGEDSQAFCEKFSGQLNSHGCFYQQVKTKVFQLKRKEYEMKLHTEAQIQEEGTVVELTGRQSSEITRTITKLSFVKVDSHFRQGIPFFGQVRLVDGKGVPIPNKVIFIRGNEANYYSNATTDEHGLVQFSINTTNVMGTSLTVRVNYKDRSPCYGYQWVSEEHEEAHHTAYLVFSPSKSFVHLEPMSHELPCGHTQTVQAHYILNGGTLLGLKKLSFYYLIMAKGGIVRTGTHGLLVKQEDMKGHFSISIPVKSDIAPVARLLIYAVLPTGDVIGDSAKYDVENCLANKVDLSFSPSQSLPASHAHLRVTAAPQSVCALRAVDQSVLLMKPDAELSASSVYNLLPEKDLTGFPGPLNDQDDEDCINRHNVYINGITYTPVSSTNEKDMYSFLEDMGLKAFTNSKIRKPKMCPQLEHGPTEGEARGSPRYLTAIPENFYGVSEDLVVQISELEGRGSPHTKLRKYFPETWIWDLVVVNSAGVAEVGVTVPDTITEWKAGAFCLSEDAGLGISSTASLRAFQPFFVELTMPYSVIRGEAFTLKATVLNYLPKCIRVSVQLEASPAFLAVPVEKEQAPHCICANGRQTVSWAVTPKSLGNVNFTVSAEALESQELCGTEVPSVPEHGRKDTVIKPLLVEPEGLEKETTFNSLLCPSGGEVSEELSLKLPPNVVEESARASVSVLGDILGSAMQNTQNLLQMPYGCGEQNMVLFAPNIYVLDYLNETQQLTPEIKSKAIGYLNTGYQRQLNYKHYDGSYSTFGERYGRNQGNTWLTAFVLKTFAQARAYIFIDEAHITQALIWLSQRQKDNGCFRSSGSLLNNAIKGGVEDEVTLSAYITIALLEIPLTVTHPVVRNALFCLESAWKTAQEGDHGSHVYTKALLAYAFALAGNQDKRKEVLKSLNEEAVKKDNSVHWERPQKPKAPVGHFYEPQAPSAEVEMTSYVLLAYLTAQPAPTSEDLTSATNIVKWITKQQNAQGGFSSTQDTVVALHALSKYGAATFTRTGKAAQVTIQSSGTFSSKFQVDNNNRLLLQQVSLPELPGEYSMKVTGEGCVYLQTSLKYNILPEKEEFPFALGVQTLPQTCDEPKAHTSFQISLSVSYTGSRSASNMAIVDVKMVSGFIPLKPTVKMLERSNHVSRTEVSSNHVLIYLDKVSNQTLSLFFTVLQDVPVRDLKPAIVKVYDYYETDEFAIAEYNAPCSKDLGNADYKDDDDKGASHHHHHH
In the case of B2, the “Protease Inhibition (% of WT)” value in assay [1] is 58 % of WT; in assay [2], 66 % of WT; in assay [3], 39 % of WT; in assay [4], 46 % of WT; in [5], 84 % of WT; in assay [6], 68 % of WT. The “Protease Inhibition (% of WT)” value in assay [7] was 26 % of WT; in [8] it was 45 % of WT; in [9], 217 % of WT; in assay [10], 94 % of WT; in assay [11], 59 % of WT.
